Substitutions are numbered along the chain they refer to. Numbers in names are those of the source.
T1: PUF4 RNA-binding domain (Saccharomyces cerevisiae, UniProt P25339 537-888)
T1 sequence: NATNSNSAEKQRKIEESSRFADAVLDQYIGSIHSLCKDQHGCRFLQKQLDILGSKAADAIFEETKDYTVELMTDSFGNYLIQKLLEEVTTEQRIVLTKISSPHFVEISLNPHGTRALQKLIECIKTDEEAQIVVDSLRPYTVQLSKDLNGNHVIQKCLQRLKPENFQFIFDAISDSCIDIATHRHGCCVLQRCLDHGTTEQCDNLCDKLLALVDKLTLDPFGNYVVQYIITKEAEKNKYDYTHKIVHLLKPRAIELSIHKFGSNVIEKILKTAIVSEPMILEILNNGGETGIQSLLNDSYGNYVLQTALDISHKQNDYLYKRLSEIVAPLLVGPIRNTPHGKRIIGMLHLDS

B1: Id_ii_S4_P3E.4_K3.3_C3.2_[C-2G]_[T-1C]_H3.3_A3.1_F3.1_T3.2_[T9C]_[A10C] (ssRNA)
RNA: UUUGACAACUGAUCGUUCUUUCUGCACACUAUACCUUCUUUCUCGAUCAGUUGUCUUU
B2: Id_ii_S4_P3E.4_K3.3_C3.2_[C-2T]_[T-1C]_H3.3_A3.1_F3.1_T3.2_[T9C]_[A10G] (ssRNA)
RNA: B1 RNA with G24U, C35G
B3: Id_ii_S4_P3E.4_K3.3_C3.2_[T-1G]_H3.3_A3.1_F3.1_T3.2_[T9C] (ssRNA)
RNA: B1 RNA with G24C, C25G, C35A
B4: Id_ii_S4_P3E.4_K3.3_C3.2_[C-2G]_[T-1C]_H3.3_A3.1_F3.1_T3.2_[T9C] (ssRNA)
RNA: B1 RNA with C35A
B5: Id_ii_S4_P3E.4_K3.3_C3.2_[T-1G]_H3.3_A3.1_F3.1_T3.2_[T9A] (ssRNA)
RNA: B1 RNA with G24C, C25G, C34A, C35A
B6: Id_ii_S4_P3E.4_K3.3_C3.2_[T-1C]_H3.3_A3.1_F3.1_T3.2_[T9G]_[A10C] (ssRNA)
RNA: B1 RNA with G24C, C34G
B7: Id_ii_S4_P3E.3_K3.2_C3.2_[C-2A]_H3.2_A3.1_F3.1_T3.2_[A10T] (ssRNA)
RNA: UUUGACAACUGAUCGUUCUUUCUAUUAUAUAUAUUUUCUUUCUCGAUCAGUUGUCUUU
B8: Id_ii_S4_P3E.3_K3.2_C3.2_[T-1C]_H3.2_A3.1_F3.1_T3.2_[A10T] (ssRNA)
RNA: B7 RNA with A24C, U25C
B9: Id_ii_S4_P3E.3_K3.2_C3.2_H3.2_A3.1_F3.1_T3.2_[T9A]_[A10C] (ssRNA)
RNA: B7 RNA with A24C, U34A, U35C
B10: Id_ii_S4_P3E.4_K3.3_C3.2_[C-2G]_H3.3_A3.1_F3.1_T3.2_[T9A]_[A10T] (ssRNA)
RNA: B1 RNA with C25U, C34A, C35U
B11: Id_ii_S4_P3E.4_K3.3_C3.2_[C-2G]_H3.3_A3.1_F3.1_T3.2_[A10T] (ssRNA)
RNA: B1 RNA with C25U, C34U, C35U
B12: Id_ii_S4_P3E.3_K3.2_C3.2_H3.2_A3.1_F3.1_T3.2 (ssRNA)
RNA: B7 RNA with A24C, U35A
B13: Id_ii_S4_P3E.4_K3.3_C3.2_[C-2G]_[T-1C]_H3.3_A3.1_F3.1_T3.2_[T9G]_[A10T] (ssRNA)
RNA: B1 RNA with C34G, C35U
B14: Id_ii_S4_P3E.4_K3.3_C3.2_[C-2T]_[T-1A]_H3.3_A3.1_F3.1_T3.2_[A10C] (ssRNA)
RNA: B1 RNA with G24U, C25A, C34U
B15: Id_ii_S4_P3E.4_K3.3_C3.2_[C-2T]_H3.3_A3.1_F3.1_T3.2_[T9A] (ssRNA)
RNA: B1 RNA with G24U, C25U, C34A, C35A
B16: Id_ii_S4_P3E.3_K3.2_C3.2_[T-1G]_H3.2_A3.1_F3.1_T3.2_[T9A] (ssRNA)
RNA: B7 RNA with A24C, U25G, U34A, U35A
B17: Id_ii_S4_P3E.4_K3.3_C3.2_[C-2A]_H3.3_A3.1_F3.1_T3.2_[A10T] (ssRNA)
RNA: B7 RNA with U26A, A27C, U28A, A29C
B18: Id_ii_S4_P3E.4_K3.3_C3.2_[C-2T]_H3.3_A3.1_F3.1_T3.2_[T9G]_[A10C] (ssRNA)
RNA: B1 RNA with G24U, C25U, C34G
B19: Id_ii_S4_P3E.3_K3.2_C3.2_H3.2_A3.1_F3.1_T3.2_[T9G]_[A10C] (ssRNA)
RNA: B7 RNA with A24C, U34G, U35C
B20: Id_ii_S4_P3E.4_K3.3_C3.2_[C-2T]_H3.3_A3.1_F3.1_T3.2 (ssRNA)
RNA: B1 RNA with G24U, C25U, C34U, C35A
B21: Id_ii_S4_P3E.4_K3.3_C3.2_[C-2T]_[T-1A]_H3.3_A3.1_F3.1_T3.2 (ssRNA)
RNA: B1 RNA with G24U, C25A, C34U, C35A
B22: Id_ii_S4_P3E.4_K3.3_C3.2_[C-2A]_[T-1A]_H3.3_A3.1_F3.1_T3.2_[A10C] (ssRNA)
RNA: B1 RNA with G24A, C25A, C34U
B23: Id_ii_S4_P3E.4_K3.3_C3.2_[C-2A]_[T-1C]_H3.3_A3.1_F3.1_T3.2_[A10T] (ssRNA)
RNA: B1 RNA with G24A, C34U, C35U
B24: Id_ii_S4_P3E.3_K3.2_C3.2_[T-1G]_H3.2_A3.1_F3.1_T3.2_[T9G]_[A10C] (ssRNA)
RNA: B7 RNA with A24C, U25G, U34G, U35C
B25: Id_ii_S4_P3E.4_K3.3_C3.2_[C-2T]_[T-1C]_H3.3_A3.1_F3.1_T3.2_[A10C] (ssRNA)
RNA: B1 RNA with G24U, C34U
B26: Id_ii_S4_P3E.4_K3.3_C3.2_[C-2A]_[T-1C]_H3.3_A3.1_F3.1_T3.2_[T9A]_[A10C] (ssRNA)
RNA: B1 RNA with G24A, C34A
B27: Id_ii_S4_P3E.4_K3.3_C3.2_[C-2T]_[T-1A]_H3.3_A3.1_F3.1_T3.2_[T9A]_[A10T] (ssRNA)
RNA: B1 RNA with G24U, C25A, C34A, C35U
B28: Id_ii_S4_P3E.4_K3.3_C3.2_[C-2A]_H3.3_A3.1_F3.1_T3.2_[A10C] (ssRNA)
RNA: B1 RNA with G24A, C25U, C34U
B29: Id_ii_S4_P3E.3_K3.2_C3.2_[T-1G]_H3.2_A3.1_F3.1_T3.2_[T9C]_[A10C] (ssRNA)
RNA: B7 RNA with A24C, U25G, U34C, U35C

These binders were tested against T1, PUF4 RNA-binding domain (assay: Mg; RNA-MaP; 20 mM Na-HEPES pH 7.4, 30 mM KOAc, 0.75 mM MgCl2, 0.1% Tween-20, 5% glycerol, 0.1 mg/mL BSA, 2 mM DTT; 25 C; 0.0125-409.6 nM protein). Details: tags: N-His6-TEV cleaved; C-SNAP kept, Cy3B-labelled; label: tethered on chip by stalled RNA polymerase.
Work on B1 yielded a Kd of 0.0502 µM. For B2, the Kd was over 2.3 µM. B3 was tested, and the Kd was 0.637 µM. With B4 the Kd was 0.115 µM. In the case of B5, the Kd is reported as over 2.3 µM. In the case of B6, the Kd is reported as over 2.3 µM. B7 gave a Kd of 0.203 µM. B8 gave a Kd of 0.0374 µM. Binder B9 has a Kd of 0.176 µM. Work on B10 yielded a Kd of 0.00068 µM. With B11 the Kd was 0.00057 µM. B12 showed a Kd of 0.0686 µM. Work on B13 yielded a Kd of 0.593 µM. Work on B14 yielded a Kd of 1.54 µM. B15 was tested, and the Kd was 2.3 µM. Binder B16 has a Kd of 0.404 µM. B17 was tested, and the Kd was 0.0493 µM. B18 gave a Kd of 1.23 µM. B19 was tested, and the Kd was 0.567 µM. For B20, the Kd was 0.345 µM. B21 showed a Kd of 0.264 µM. Binder B22 has a Kd of 1.02 µM. In the case of B23, the Kd is reported as 1.14 µM. For B24, the Kd was 0.194 µM. B25 was tested, and the Kd was over 2.3 µM. Work on B26 yielded a Kd of 1.37 µM. In the case of B27, the Kd is reported as over 2.3 µM. B28 was tested, and the Kd was 0.0418 µM. Work on B29 yielded a Kd of 0.978 µM.

From PMC9352680, “A comprehensive thermodynamic model for RNA binding by the Saccharomyces cerevisiae Pumilio protein PUF4”
